# Target: calnexin (simian (endogenous in COS7))
# Test: co-IP
row,Binder,"amount coimmunoprecipitated with CNX, percent of wild-type GlyT2"
1,GlyT2 A277T mutant (rat numbering; rat version of human A275T) (natural protein) MDCSAPKEMNKPPTNILEATVPGHRDSPRAPRTSPEQDLPAAAPAAAVQPPRVPRSASTGAQTFQSADARACEAQRPGVGFCKLSSPQAQATSAALRDLSEGHSAQANPPSGAAGAGNALHCKIPALRGPEEDENVSVGKGTLEHNNTPAVGWVNMSQSTVVLGTDGIASVLPGSVATTTIPEDEQGDENKARGNWSSKLDFILSMVGYAVGLGNVWRFPYLAFQNGGGAFLIPYLMMLALAGLPIFFLEVSLGQFASQGPVSVWKAIPALQGCGITMLIISVLIAIYYNVIICYTLFYLFASFVSVLPWGSCNNPWNTPECKDKTKLLLDSCVIGDHPKIQIKNSTFCMTAYPNLTMVNFTSQANKTFVSGSEEYFKYFVLKISAGIEYPGEIRWPLAFCLFLAWVIVYASLAKGIKTSGKVVYFTATFPYVVLVILLIRGVTLPGAGAGIWYFITPKWEKLTDATVWKDAATQIFFSLSAAWGGLITLSSYNKFHNNCYRDTLIVTCTNSATSIFAGFVIFSVIGFMANERKVNIENVADQGPGIAFVVYPEALTRLPLSPFWAIIFFLMLLTLGLDTMFATIETIVTSISDEFPKYLRTHKPVFTLGCCICFFIMGFPMITQGGIYMFQLVDTYAASYALVIIAIFELVGISYVYGLQRFCEDIEMMIGFQPNIFWKVCWAFVTPTILTFILCFSFYQWEPMTYGSYRYPNWSMVLGWLMLACSVIWIPIMFVIKMYLAPGRFIERLKLVCSPQPDWGPFLAQHRGERYKNMIDPLGTSSLGLKLPVKDLELGTQC,289%
2,GlyT2 Y707C mutant (rat numbering; rat version of human Y705C) (natural protein) MDCSAPKEMNKPPTNILEATVPGHRDSPRAPRTSPEQDLPAAAPAAAVQPPRVPRSASTGAQTFQSADARACEAQRPGVGFCKLSSPQAQATSAALRDLSEGHSAQANPPSGAAGAGNALHCKIPALRGPEEDENVSVGKGTLEHNNTPAVGWVNMSQSTVVLGTDGIASVLPGSVATTTIPEDEQGDENKARGNWSSKLDFILSMVGYAVGLGNVWRFPYLAFQNGGGAFLIPYLMMLALAGLPIFFLEVSLGQFASQGPVSVWKAIPALQGCGIAMLIISVLIAIYYNVIICYTLFYLFASFVSVLPWGSCNNPWNTPECKDKTKLLLDSCVIGDHPKIQIKNSTFCMTAYPNLTMVNFTSQANKTFVSGSEEYFKYFVLKISAGIEYPGEIRWPLAFCLFLAWVIVYASLAKGIKTSGKVVYFTATFPYVVLVILLIRGVTLPGAGAGIWYFITPKWEKLTDATVWKDAATQIFFSLSAAWGGLITLSSYNKFHNNCYRDTLIVTCTNSATSIFAGFVIFSVIGFMANERKVNIENVADQGPGIAFVVYPEALTRLPLSPFWAIIFFLMLLTLGLDTMFATIETIVTSISDEFPKYLRTHKPVFTLGCCICFFIMGFPMITQGGIYMFQLVDTYAASYALVIIAIFELVGISYVYGLQRFCEDIEMMIGFQPNIFWKVCWAFVTPTILTFILCFSFYQWEPMTCGSYRYPNWSMVLGWLMLACSVIWIPIMFVIKMYLAPGRFIERLKLVCSPQPDWGPFLAQHRGERYKNMIDPLGTSSLGLKLPVKDLELGTQC,188%

# Reference: publication doi:10.1101/2021.03.24.436638
